Measured values from paper PMC314469, “Protein Interaction Networks by Proteome Peptide Scanning” (PLoS Biology, 2004).

B1: YKR001C 550-562 (peptide)
chain: PRQVAVDPKTGKP
B2: YLR072W 386-399 (peptide)
chain: PFHVQETMDFPYKP
B3: YDL019C 243-256 (peptide)
chain: PLDLVKNIKLPAKP
B4: YPR091C 655-668 (peptide)
chain: PKMISNRRPVPRRP
B5: YCR094W 11-23 (peptide)
chain: PPLTKEGPTSKKP
B6: YMR047C 1028-1041 (peptide)
chain: PKTSIIYANLPNRP
B7: YOR117W 130-142 (peptide)
chain: PMVGLVDPDKLKP
B8: YER172C 458-471 (peptide)
chain: PQYDEIHIPAPSKP
B9: YJL123C 260-272 (peptide)
chain: PNNNGITPVEKKP
B10: YOR249C 37-50 (peptide)
chain: PTAVFLRLISPTRP
B11: YLR176C 127-139 (peptide)
chain: PPLIGSGPGSHKP
B12: YDR433W 131-144 (peptide)
chain: PEMLHVKDHQPGKP
B13: YOL019W 423-435 (peptide)
chain: PRETAAGPANIRP
B14: YNL137C 417-429 (peptide)
chain: PKKPFFTPWKPRP
B15: YML065W 327-340 (peptide)
chain: PKKRGRKPKDPSKP
B16: YCR034W 17-29 (peptide)
chain: PQLHDYLPTLERP
B17: YDR085C 528-541 (peptide)
chain: PDSSFDKVETPPKP
B18: YML109W 615-628 (peptide)
chain: PSVVSSSESQPSKP
B19: YIR006C 205-218 (peptide)
chain: PPPQQAQSLQPLKP
B20: YDR266C 579-591 (peptide)
chain: PKPKVQIPGLNRP
B21: YGR156W 131-144 (peptide)
chain: PFEMVTEVPIPRRP
B22: YJL200C 564-577 (peptide)
chain: PNSDRLQLLEPFKP
B23: YER086W 492-505 (peptide)
chain: PNERIISFEFPERP
B24: YIR003W 384-396 (peptide)
chain: PKRRAPPPVPKKP
B25: YHL029C 305-318 (peptide)
chain: PLPFELRSKLPTKP
B26: YPR118W 222-234 (peptide)
chain: PRMGHVFPLETRP
B27: YLR304C 557-570 (peptide)
chain: PTSDRLQLLKPFKP
B28: YPL204W 411-423 (peptide)
chain: PQQLQQQPNGQRP
B29: YNL139C 1426-1438 (peptide)
chain: PSNDRSAPKNIKP
B30: YLR174W 115-127 (peptide)
chain: PRIPRLVPQWEKP
B31: YNL009W 115-127 (peptide)
chain: PKIPRLVPHWEKP
B32: YPL243W 519-532 (peptide)
chain: PTDIQLKNLFPLKP
B33: YHR182W 754-767 (peptide)
chain: PFKTSSTPTTPERP
B34: YJR083C 40-53 (peptide)
chain: PESKSPRVTTPLKP
B35: YDR158W 295-308 (peptide)
chain: PKQTIHVLEQPDRP
B36: YDL064W 59-72 (peptide)
chain: PITVEYPNEYPSKP
B37: YMR042W 16-29 (peptide)
chain: PITGDVETNEPTKP
B38: YOL004W 624-637 (peptide)
chain: PIANTQYGDIPVRP
B39: YDL066W 131-143 (peptide)
chain: PRIPRLVPRWEKP
B40: YPL243W 529-541 (peptide)
chain: PLKPKMLPIPSKP
B41: YGL035C 180-192 (peptide)
chain: PKTMAKIPVSVKP
B42: YBL013W 258-270 (peptide)
chain: PQNRVQAPTAYKP
B43: YGL137W 97-110 (peptide)
chain: PDYIRSIAVHPTKP
B44: YLR224W 322-335 (peptide)
chain: PRDTIIGHGLPYKP
B45: YDR389W 56-68 (peptide)
chain: PTTLKRPPLSSRP
B46: YMR109W 1073-1085 (peptide)
chain: PPPPPPPPPSSKP
B47: YBR041W 461-474 (peptide)
chain: PGEMLMRIFFPKKP
B48: YNL216W 571-584 (peptide)
chain: PEPMKNLTNRPKRP
B49: YHR001W-A 64-76 (peptide)
chain: PTLEDHTPPEDKP
B50: YCL044C 243-255 (peptide)
chain: PIIKWFGPLEYKP
B51: YKL064W 123-135 (peptide)
chain: PIMKFSTPSYKKP
B52: YBR189W 5-18 (peptide)
chain: PRTYSKTYSTPKRP
B53: YER064C 414-427 (peptide)
chain: PLVSSNKQSNPMRP
B54: YFL011W 29-42 (peptide)
chain: PETREASLDIPYKP
B55: YJL060W 83-95 (peptide)
chain: PMVNQYSPTRGRP
B56: YMR016C 338-351 (peptide)
chain: PLYDGNSITPPVKP
B57: YDR464W 659-672 (peptide)
chain: PDLRLTKSGKPKKP
B58: YJR016C 466-478 (peptide)
chain: PRGAPGMPEMLKP

Biological target: T1, Abp1 SH3 (ABP1_YEAST), P15891
T1 chain: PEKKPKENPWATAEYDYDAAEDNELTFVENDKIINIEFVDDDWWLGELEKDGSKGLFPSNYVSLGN
Experiment: SPOT array

Point of comparison: B9, normalised SPOT signal, Boehringer light units (BLU); mean over the file's lines of this peptide 0. Against it:
- B1 — higher, 32.3
- B2 — higher, 53
- B3 — higher, 383
- B4 — higher, 5500
- B5 — higher, 200
- B6 — higher, 97.2
- B7 — higher, 234
- B8 — higher, 36.2
- B10 — higher, 37.3
- B11 — higher, 192
- B12 — higher, 120
- B13 — the same, -0
- B14 — higher, 1330
- B15 — higher, 32.6
- B16 — the same, 0
- B17 — higher, 196
- B18 — higher, 23.6
- B19 — higher, 188
- B20 — higher, 38700
- B21 — higher, 688
- B22 — higher, 98.6
- B23 — higher, 64.1
- B24 — higher, 110000
- B25 — higher, 2670
- B26 — higher, 4090
- B27 — higher, 920
- B28 — higher, 128
- B29 — higher, 86.5
- B30 — higher, 698
- B31 — higher, 520
- B32 — higher, 128
- B33 — higher, 138
- B34 — higher, 140
- B35 — higher, 62.2
- B36 — higher, 96.3
- B37 — higher, 28.9
- B38 — higher, 67
- B39 — higher, 3910
- B40 — higher, 14100
- B41 — higher, 1630
- B42 — higher, 287
- B43 — higher, 51.9
- B44 — higher, 46.8
- B45 — higher, 6140
- B46 — higher, 117
- B47 — higher, 561
- B48 — higher, 913
- B49 — higher, 81
- B50 — higher, 85.4
- B51 — higher, 726
- B52 — higher, 88.1
- B53 — higher, 1040
- B54 — higher, 16.9
- B55 — higher, 2140
- B56 — higher, 110
- B57 — higher, 131
- B58 — higher, 146
